In article PMC2563962 (Structure (London, England : 1993), 2008):

Molecular target: the molecule itself
Experiment: SEC

B1: SusD (residues 26-551) of Bacteroides thetaiotaomicron (domain or fragment, Bacteroides thetaiotaomicron ATCC 29148, UniProt Q8A1G2 26-551, looked up)
chain: INDLDISPIDPQTGGSFDQQGVFVKGYAMLGVTGQKGIDGSPDLDGQDEGESGFYRTTFNCNELPTDECLWAWQENQDIPQLTSISWSPSSQRTEWVYVRLGYDITQYNFFLDQTEGMTDAETLRQRAEIRFLRALHYWYFLDLFGKAPFKEHFSNDLPVEKKGTELYTYIQNELNEIEADMYEPRQAPFGRADKAANWLLRARLYLNAGVYTGQTDYAKAEEYASKVIGSAYKLCTNYSELFMADNDENENAMQEIILPIRQDGVKTRNYGGSTYLVCGTRVAGMPRMGTTNGWSCIFARAAMVQKFFSNLEDVPMLPADVEIPTKGLDTDEQIDAFDAEHGIRTEDMIKAAGDDRALLYSGVGGGRRKIQTDAISGFTDGLSIVKWQNYRSDGKPVSHATYPDTDIPLFRLAEAYLTRAEAIFRQGGDATGDINELRKRANCTRKVQTVTEQELIDEWAREFYLEGRRRSDLVRFGMFTTNKYLWDWKGGAMNGTSVASYYNKYPIPVSDINNNRNMSQNEGYK
  stoichiometry N: 2
